Experimental data published in patent US20100035825A1.

Experiments:
[1] = molecular target: purified recombinant procaspase 1 (human, Alexis Biochemicals) (human) (UniProt P29466); test: co-immunoprecipitation of purified recombinant proteins (C/EBPβ peptides 200 µM), immunoblot, densitometry; reference C/EBPβ-HA-Ala217
[2] = molecular target: purified recombinant procaspase 8 (human, Alexis Biochemicals) (human) (UniProt Q14790); test: co-immunoprecipitation of purified recombinant proteins (C/EBPβ peptides 200 µM), immunoblot, densitometry; reference C/EBPβ 216-253-HA-Ala217
Chain of purified recombinant procaspase 8 (human, Alexis Biochemicals) (human) (Q14790 217-479 limits assumed): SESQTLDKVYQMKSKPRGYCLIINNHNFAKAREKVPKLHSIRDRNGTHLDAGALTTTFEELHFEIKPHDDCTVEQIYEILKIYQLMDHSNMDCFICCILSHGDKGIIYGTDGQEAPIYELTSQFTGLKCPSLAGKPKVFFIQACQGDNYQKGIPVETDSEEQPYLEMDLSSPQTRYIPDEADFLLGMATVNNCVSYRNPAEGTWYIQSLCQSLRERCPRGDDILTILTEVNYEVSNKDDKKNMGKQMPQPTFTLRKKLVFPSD

[3] = molecular target: purified recombinant procaspase 1 (human, Alexis Biochemicals) (human) (UniProt P29466); test: as above

C/EBPβ-HA-Glu^217 (from UniProt P28033 1-296)
fold more co-immunoprecipitated than the Ala^217 peptides (densitometry) [1]: 7 fold

C/EBPβ 216-253-HA-Glu^217
fold more co-immunoprecipitated than the Ala^217 peptides (densitometry) [2]: 12 fold | fold more co-immunoprecipitated than the Ala^217 peptides (densitometry) [3]: 7 fold
